Data as given in patent publication US20190241654A1 (published 2019).
Where “and” joins values, the source holds several entries; their conditions need not be identical. Identical values can stand only once.

How the values were obtained:
[1] = biological target: T1, CD47 on CCRF-CEM cells (human, UniProt Q08722 19-323); test: cell-based or functional assay
[2] = biological target: T1, CD47 on CCRF-CEM cells; test: flow cytometry on antibody-opsonized CCRF-CEM cells, anti-human Alexa 647 secondary, median fluorescence, sigmoidal fit; Donor 1
Experimental: (§1) Phagocytosis was assayed by serum starving the macrophages in incomplete AIM V media for two hours. During this incubation period, target cells (CCRF-CEM) from two donors (donor 1 and donor 2) were labeled with CSFE (Invitrogen, #C34554) at […] for 15 minutes at room temperature. Cells were rinsed twice with PBS (Hyclone, #SH30028.02) and resuspended at 8×10⁵/mL in AIM V media. Antibody dilutions were prepared at 0.01 ug/ml to 10 ug/ml in half log dilutions and then incubated with the target cell line for 10 minutes at room temperature (a small portion is retained for flow cytometric analysis/cell binding), after which 100 μL of target cell/antibody suspension was added to the macrophage plates. Samples were treated in triplicate and with appropriate isotype controls.
(§2) Samples were incubated for 30 minutes at room temperature, rinsed 2× and then resuspended in FACS buffer and analyzed on the Attune. The EC50 values refer to the concentration that gives half the maximum binding measured as median fluorescent intensity, and was determined by non-linear fit of a sigmoidal dose response within the GraphPad Prism software.

[3] = biological target: T1, CD47 on CCRF-CEM cells; test: flow cytometry on antibody-opsonized CCRF-CEM cells, anti-human Alexa 647 secondary, median fluorescence, sigmoidal fit; Donor 2
Experimental: as §1, §2

[4] = biological target: T1, CD47 on CCRF-CEM cells; test: flow cytometry on antibody-opsonized CCRF-CEM cells, anti-human Alexa 647 secondary, median fluorescence, sigmoidal fit
Experimental: as §1, §2

T1 sequence (Q08722 19-323): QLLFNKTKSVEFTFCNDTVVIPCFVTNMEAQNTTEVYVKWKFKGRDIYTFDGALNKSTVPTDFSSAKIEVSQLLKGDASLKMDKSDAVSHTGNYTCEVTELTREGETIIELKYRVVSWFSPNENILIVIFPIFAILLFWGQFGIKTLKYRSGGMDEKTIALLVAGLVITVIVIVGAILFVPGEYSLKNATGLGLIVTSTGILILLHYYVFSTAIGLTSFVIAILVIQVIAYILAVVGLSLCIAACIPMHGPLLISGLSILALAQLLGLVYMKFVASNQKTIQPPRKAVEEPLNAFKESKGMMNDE

| Phagocytosis EC50 (ug/mL), Donor 1 [1] [µg/mL] | Phagocytosis EC50 (ug/mL), Donor 2 [1] | EC50 [2] [mg/L] | EC50 [3] [mg/L] | EC50 [4] | Binder |
| --- | --- | --- | --- | --- | --- |
| 0.68 | 1.82 µg/mL | 0.17 | 0.16 | – | Ab356/Ab1120 (HC Ab356, LC Ab1120) anti-CD47 antibody (antibody, V domains shown, FR and CDR L2 variant of AbParental) VH: QMQLVQSGAEVKKPGSSVKVSCKASGFNIKDYYLHWVRQAPGKGLEWMGWIDPDQGDTEYAQKFQGRVTITRDRSTSTAYMELRSLRAEDTAVYYCNAAYGSSSYPMDYWGQGTTVTVSS VL: NIQMTQSPSSLSASVGDRVTITCRASQDIHRYLSWFQQKPGKVPKHLIYRYVRFVDGVPSRFSGSGSGTEFTLTISSLQPEDFATYYCLQYDEFPYTFGGGTKVEIK |
| 0.73 | 2.01 µg/mL | 0.33 | 0.17 | – | Ab480/Ab1120 (HC Ab480, LC Ab1120) anti-CD47 antibody (antibody, V domains shown, FR and CDR L2 variant of AbParental) VH: QMQLVQSGAEVKKPGSSVKVSCKASGFNIKDYYLHWVRQAPGKGLEWMGWIDPDQGDTEYAQKFQGRVTITRDRSTSTAYMELRSLRAEDTAVYYCNAAYGSSSYPMDYWGQGTLVTVSS VL: NIQMTQSPSSLSASVGDRVTITCRASQDIHRYLSWFQQKPGKVPKHLIYRYVRFVDGVPSRFSGSGSGTEFTLTISSLQPEDFATYYCLQYDEFPYTFGGGTKVEIK |
| 0.48 | 1.29 µg/mL | 0.19 | 0.16 | – | Ab356/Ab1121 (HC Ab356, LC Ab1121) anti-CD47 antibody (antibody, V domains shown, FR and CDR L2 variant of AbParental; The label order is HC/LC although the head says 'LC/HC'; the row in running number order (r442) is used) VH: QMQLVQSGAEVKKPGSSVKVSCKASGFNIKDYYLHWVRQAPGKGLEWMGWIDPDQGDTEYAQKFQGRVTITRDRSTSTAYMELRSLRAEDTAVYYCNAAYGSSSYPMDYWGQGTTVTVSS VL: NIQMTQSPSSLSASVGDRVTITCRASQDIHRYLSWFQQKPGKVPKHLIYRYIRFVDGVPSRFSGSGSGTEFTLTISSLQPEDFATYYCLQYDEFPYTFGGGTKVEIK |
| 1.88 | 1.95 µg/mL | 0.08 | 0.2 | – | Ab480/Ab1127 (HC Ab480, LC Ab1127) anti-CD47 antibody (antibody, V domains shown, FR and CDR L2 variant of AbParental; The label order is HC/LC although the head says 'LC/HC'; r460 is used) VH: QMQLVQSGAEVKKPGSSVKVSCKASGFNIKDYYLHWVRQAPGKGLEWMGWIDPDQGDTEYAQKFQGRVTITRDRSTSTAYMELRSLRAEDTAVYYCNAAYGSSSYPMDYWGQGTLVTVSS VL: NIQMTQSPSSLSASVGDRVTITCRASQDIHRYLSWFQQKPGKVPKHLIYRESRFVDGVPSRFSGSGSGTEFTLTISSLQPEDFATYYCLQYDEFPYTFGGGTKVEIK |
| 0.15 | 0.17 µg/mL | – | – | 0.014 mg/L | Ab482/Ab387 (LC Ab482, HC Ab387) anti-CD47 antibody (antibody, V domains shown, Framework variant of AbParental) VH: QMQLVQSGAEVKKPGSSVKVSCKASGFNIKDYYLHWVRQAPGKGLEWMGWIDPDQGDTEYAQKFQGRVTITRDRSTSTAYMELRSLRSEDTAVYYCNAAYGSSSYPMDYWGQGTLVTVSS VL: NIQMTQSPSSMSASVGDRVTITCKASQDIHRYLSWFQQKPGKVPKHLIYRANRLVSGVPSRFSGSGSGTEFTLTISSLQPEDFATYYCLQYDEFPYTFGGGTKVEIK |
| 0.59 | 0.94 µg/mL | – | – | 0.066 mg/L | Ab495/Ab480 (LC Ab495, HC Ab480) anti-CD47 antibody (antibody, V domains shown, Framework variant of AbParental) VH: QMQLVQSGAEVKKPGSSVKVSCKASGFNIKDYYLHWVRQAPGKGLEWMGWIDPDQGDTEYAQKFQGRVTITRDRSTSTAYMELRSLRAEDTAVYYCNAAYGSSSYPMDYWGQGTLVTVSS VL: NIQMTQSPSSLSASVGDRVTITCKASQDIHRYLSWYQQKPGKAPKHLIYRANRLVSGVPSRFSGSGSGTEFTLTISSLQPEDFATYYCLQYDEFPYTFGGGTKVEIK |
| – | 0.52 µg/mL and 0.21 µg/mL | – | – | 0.011 mg/L and 0.014 mg/L | Ab1119/Ab387 (LC Ab1119, HC Ab387) anti-CD47 antibody (antibody, V domains shown, Variant of AbParental) VH: QMQLVQSGAEVKKPGSSVKVSCKASGFNIKDYYLHWVRQAPGKGLEWMGWIDPDQGDTEYAQKFQGRVTITRDRSTSTAYMELRSLRSEDTAVYYCNAAYGSSSYPMDYWGQGTLVTVSS VL: NIQMTQSPSSLSASVGDRVTITCRASQDIHRYLSWFQQKPGKVPKHLIYRANRLVSGVPSRFSGSGSGTEFTLTISSLQPEDFATYYCLQYDEFPYTFGGGTKVEIK |
| 0.43 | 1.42 µg/mL | 0.17 | 0.17 | – | Ab480/Ab1121 (HC Ab480, LC Ab1121) anti-CD47 antibody (antibody, V domains shown, FR and CDR L2 variant of AbParental; The label order is HC/LC although the head says 'LC/HC'; r442 is used) VH: QMQLVQSGAEVKKPGSSVKVSCKASGFNIKDYYLHWVRQAPGKGLEWMGWIDPDQGDTEYAQKFQGRVTITRDRSTSTAYMELRSLRAEDTAVYYCNAAYGSSSYPMDYWGQGTLVTVSS VL: NIQMTQSPSSLSASVGDRVTITCRASQDIHRYLSWFQQKPGKVPKHLIYRYIRFVDGVPSRFSGSGSGTEFTLTISSLQPEDFATYYCLQYDEFPYTFGGGTKVEIK |
| 1.07 | 1.83 µg/mL | 0.17 | 0.22 | – | Ab356/Ab1122 (HC Ab356, LC Ab1122) anti-CD47 antibody (antibody, V domains shown, FR and CDR L2 variant of AbParental; The label order is HC/LC although the head says 'LC/HC'; r445 is used) VH: QMQLVQSGAEVKKPGSSVKVSCKASGFNIKDYYLHWVRQAPGKGLEWMGWIDPDQGDTEYAQKFQGRVTITRDRSTSTAYMELRSLRAEDTAVYYCNAAYGSSSYPMDYWGQGTTVTVSS VL: NIQMTQSPSSLSASVGDRVTITCRASQDIHRYLSWFQQKPGKVPKHLIYRYERFVDGVPSRFSGSGSGTEFTLTISSLQPEDFATYYCLQYDEFPYTFGGGTKVEIK |
| 0.66 | 0.96 µg/mL | 0.11 | 0.15 | – | Ab356/Ab1127 (HC Ab356, LC Ab1127) anti-CD47 antibody (antibody, V domains shown, FR and CDR L2 variant of AbParental; The label order is HC/LC although the head says 'LC/HC'; r460 is used) VH: QMQLVQSGAEVKKPGSSVKVSCKASGFNIKDYYLHWVRQAPGKGLEWMGWIDPDQGDTEYAQKFQGRVTITRDRSTSTAYMELRSLRAEDTAVYYCNAAYGSSSYPMDYWGQGTTVTVSS VL: NIQMTQSPSSLSASVGDRVTITCRASQDIHRYLSWFQQKPGKVPKHLIYRESRFVDGVPSRFSGSGSGTEFTLTISSLQPEDFATYYCLQYDEFPYTFGGGTKVEIK |
| 1.1 | 1.84 µg/mL | 0.16 | 0.17 | – | Ab480/Ab1122 (HC Ab480, LC Ab1122) anti-CD47 antibody (antibody, V domains shown, FR and CDR L2 variant of AbParental; The label order is HC/LC although the head says 'LC/HC'; r445 is used) VH: QMQLVQSGAEVKKPGSSVKVSCKASGFNIKDYYLHWVRQAPGKGLEWMGWIDPDQGDTEYAQKFQGRVTITRDRSTSTAYMELRSLRAEDTAVYYCNAAYGSSSYPMDYWGQGTLVTVSS VL: NIQMTQSPSSLSASVGDRVTITCRASQDIHRYLSWFQQKPGKVPKHLIYRYERFVDGVPSRFSGSGSGTEFTLTISSLQPEDFATYYCLQYDEFPYTFGGGTKVEIK |
| 0.15 | 0.62 µg/mL | – | – | 0.015 mg/L | Ab1119/Ab170 (LC Ab1119, HC Ab170) anti-CD47 antibody (antibody, V domains shown, Variant of AbParental) VH: QMQLVQSGAEVKKPGSSVKVSCKASGFNIKDYYLHWVRQAPGKGLEWMGWIDPDQGDTEYAQKFQGRVTITRDRSTSTAYMELRSLRSEDTAVYYCNAAYGSSSYPMDYWGQGTTVTVSS VL: NIQMTQSPSSLSASVGDRVTITCRASQDIHRYLSWFQQKPGKVPKHLIYRANRLVSGVPSRFSGSGSGTEFTLTISSLQPEDFATYYCLQYDEFPYTFGGGTKVEIK |
| 0.68 | 0.92 µg/mL | – | – | 0.035 mg/L | Ab495/Ab356 (LC Ab495, HC Ab356) anti-CD47 antibody (antibody, V domains shown, Framework variant of AbParental) VH: QMQLVQSGAEVKKPGSSVKVSCKASGFNIKDYYLHWVRQAPGKGLEWMGWIDPDQGDTEYAQKFQGRVTITRDRSTSTAYMELRSLRAEDTAVYYCNAAYGSSSYPMDYWGQGTTVTVSS VL: NIQMTQSPSSLSASVGDRVTITCKASQDIHRYLSWYQQKPGKAPKHLIYRANRLVSGVPSRFSGSGSGTEFTLTISSLQPEDFATYYCLQYDEFPYTFGGGTKVEIK |
